Measured values from US20240400717A1 (NATIONAL CHENG KUNG UNIVERSITY, published 2024).
Where two headings read alike, the source gives them in different places.

How the values were obtained:
mouse rCHI3L1 [1] = target: T1, mouse rCHI3L1 (mouse, UniProt Q61362 30-389, limits assumed); test: phage ELISA (4th round single clone screening): coated protein, rescued phage supernatant, anti-M13-HRP, OD450
T1 construct: also called mouse CHI3L1; murine CHI3L1

recombinant human CHI3L1 [2] = target: T2, recombinant human CHI3L1 (human, UniProt P36222 22-383); test: as above
T2 construct: also called rCHI3L1; human rCHI3L1
T2 sequence (P36222 22-383 limits assumed): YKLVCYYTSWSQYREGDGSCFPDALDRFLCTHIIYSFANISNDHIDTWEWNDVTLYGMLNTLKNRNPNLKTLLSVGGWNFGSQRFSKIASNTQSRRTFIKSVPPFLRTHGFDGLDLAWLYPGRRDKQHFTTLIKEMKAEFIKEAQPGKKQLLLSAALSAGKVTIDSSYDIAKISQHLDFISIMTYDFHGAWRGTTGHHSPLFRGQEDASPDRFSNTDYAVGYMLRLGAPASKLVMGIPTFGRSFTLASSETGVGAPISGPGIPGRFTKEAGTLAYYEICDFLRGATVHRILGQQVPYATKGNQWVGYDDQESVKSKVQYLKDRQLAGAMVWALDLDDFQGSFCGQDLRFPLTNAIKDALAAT

mouse rCHI3L1 [3] = target: T1, mouse rCHI3L1; test: as above; remark: listed apart in the source
recombinant human CHI3L1 [4] = target: T2, recombinant human CHI3L1; test: as above; remark: listed apart in the source
CHI3L2 [5] = target: T3, CHI3L2 (human, UniProt Q15782 27-390, limits assumed); test: ELISA: coated recombinant protein titrated 2.50 to 0.00 µg/ml, antibody at 1 µg/ml, OD450
T3 construct: The sentence reads 'human chitotriosidase-1 (CHIT1) and CHI3L2'
T3 sequence (looked up): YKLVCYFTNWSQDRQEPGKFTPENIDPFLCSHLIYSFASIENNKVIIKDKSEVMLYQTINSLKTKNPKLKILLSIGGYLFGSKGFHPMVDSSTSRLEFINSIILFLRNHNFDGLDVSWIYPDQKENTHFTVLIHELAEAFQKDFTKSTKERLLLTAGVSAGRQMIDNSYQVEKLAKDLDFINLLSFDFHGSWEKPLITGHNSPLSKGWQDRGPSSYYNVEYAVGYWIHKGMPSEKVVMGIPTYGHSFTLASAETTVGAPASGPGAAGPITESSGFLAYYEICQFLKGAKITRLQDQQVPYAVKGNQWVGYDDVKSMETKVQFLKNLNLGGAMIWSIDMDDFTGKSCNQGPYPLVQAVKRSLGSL

recombinant human CHI3L1 [6] = target: T2, recombinant human CHI3L1; test: as above
[7] = target: T4, human chitotriosidase-1 (CHIT1) (human, UniProt Q13231 22-466, limits assumed); test: as above
T4 sequence (Q13231 22-466 limits assumed): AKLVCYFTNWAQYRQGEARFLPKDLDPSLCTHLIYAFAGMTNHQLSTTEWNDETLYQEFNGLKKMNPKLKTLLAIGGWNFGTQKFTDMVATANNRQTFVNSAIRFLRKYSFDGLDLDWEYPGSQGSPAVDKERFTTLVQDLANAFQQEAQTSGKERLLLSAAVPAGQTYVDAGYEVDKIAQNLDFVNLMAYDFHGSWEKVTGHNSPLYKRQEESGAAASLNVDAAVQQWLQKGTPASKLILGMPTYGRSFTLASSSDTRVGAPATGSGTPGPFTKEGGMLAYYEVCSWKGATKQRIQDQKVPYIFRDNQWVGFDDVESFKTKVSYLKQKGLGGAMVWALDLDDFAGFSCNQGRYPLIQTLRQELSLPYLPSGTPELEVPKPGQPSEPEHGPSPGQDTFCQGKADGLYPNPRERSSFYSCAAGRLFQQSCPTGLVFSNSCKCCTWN

[8] = target: T5, human CHI3L1 extracellular domain fused with flag and His tag recombinant protein (human, UniProt P36222 22-383); test: BLI (ForteBio Octet), mAb captured on AHC sensor, hCHI3L1/flag-His as analyte
T5 construct: extracellular domain; also called hCHI3L1/flag-His; hCHI3L1; not shown: flag and His tag
T5 sequence (P36222 22-383 limits assumed): as the sequence (P36222 22-383 limits assumed) above

CHI3L2 [9] = target: T3, CHI3L2; test: ELISA: coated recombinant protein titrated 2.50 to 0.00 µg/ml, antibody at 1 µg/ml, OD450; remark: listed apart in the source
recombinant human CHI3L1 [10] = target: T2, recombinant human CHI3L1; test: as above; remark: listed apart in the source
[11] = target: T4, human chitotriosidase-1 (CHIT1); test: as above; remark: listed apart in the source
recombinant human CHI3L1 [12] = target: T2, recombinant human CHI3L1; test: ELISA: coated human rCHI3L1 titrated 2.5 to 0 µg/ml, antibody concentration not given, OD450
CHI3L2 [13] = target: T3, CHI3L2; test: ELISA: coated recombinant protein titrated 2.50 to 0.00 µg/ml, antibody at 1 µg/ml, OD450; remark: listed apart in the source
recombinant human CHI3L1 [14] = target: T2, recombinant human CHI3L1; test: as above; remark: listed apart in the source
[15] = target: T4, human chitotriosidase-1 (CHIT1); test: as above; remark: listed apart in the source
mouse rCHI3L1 [16] = target: T1, mouse rCHI3L1; test: ELISA: coated mouse rCHI3L1 titrated 2.5 to 0 µg/ml, antibody concentration not given, OD450
CHI3L2 [17] = target: T3, CHI3L2; test: ELISA: coated recombinant protein titrated 2.50 to 0.00 µg/ml, antibody at 1 µg/ml, OD450; remark: listed apart in the source
recombinant human CHI3L1 [18] = target: T2, recombinant human CHI3L1; test: as above; remark: listed apart in the source
[19] = target: T4, human chitotriosidase-1 (CHIT1); test: as above; remark: listed apart in the source
mouse rCHI3L1 [20] = target: T1, mouse rCHI3L1; test: phage ELISA (3rd round single clone screening): coated protein, rescued phage supernatant, anti-M13-HRP, OD450

T1 sequence (Q61362 30-389 limits assumed): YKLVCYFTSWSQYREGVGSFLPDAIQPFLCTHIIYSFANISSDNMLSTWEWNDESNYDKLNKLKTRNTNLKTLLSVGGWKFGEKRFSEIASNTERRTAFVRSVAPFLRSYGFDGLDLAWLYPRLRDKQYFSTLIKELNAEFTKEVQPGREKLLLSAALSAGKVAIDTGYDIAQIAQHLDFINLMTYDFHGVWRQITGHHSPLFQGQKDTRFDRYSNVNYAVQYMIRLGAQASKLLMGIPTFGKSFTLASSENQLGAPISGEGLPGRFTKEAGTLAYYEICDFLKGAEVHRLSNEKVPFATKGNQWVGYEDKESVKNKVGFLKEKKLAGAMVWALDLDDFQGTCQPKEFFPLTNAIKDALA

Row | Binder | binding result (mouse rCHI3L1 [1]) | binding result (recombinant human CHI3L1 [2]) | binding result (mouse rCHI3L1 [3]) | Kd [8] | koff [8] | kon [8] | also measured
1 | anti-CHI3L1 clone R4-53 (antibody, human IgG1, V domains shown, also called #hu R4-53) VH: QVQLVQSGAEVKKPGASVKVSCKASGYTFTSYYMHWVRQAPGQGLEWMGIINPSGGSTSYAQKFQGRVTMTRDTSTSTVYMELSSLRSEDTAVYYCASDIGDYGDYWGQGTTVTVSS VL: SYVLTQPPSVSVALGQTARITCGGNNIESKIVSWYQQKPGQAPVLVIFYDTDRPSGISERFSGSNSGNTATLTISRVEAGDEADYYCQVWDSNSDHVIFGGGTKLTVLG | no binding | binds | – | – | – | – | –
2 | anti-CHI3L1 clone R4-2 (antibody, human IgG1, V domains shown, also called #hu R4-2) VH: QVQLVQSGAEVKKPGSSVKVSCKASGGTFSSYAISWVRQAPGQGLEWMGGIIPIFGTANYAQKFQGRVTITADESTSTAYMELSSLRSEDTAVYYCARGDIEYYDILTGYYYYFDYWGQGTLVTVSS VL: SYVLTQPPSVSVAPGKAARVTCGGNDIGSKSVQWYQQKPGQAPVLVISYDNDRPSGIPERFSGSNSGNTATLTISRVEAGDEADYYCQVWDSTSDHYVFGTGTKVTVQG | – | – | no binding | – | – | – | binding result (recombinant human CHI3L1 [4]): binds
3 | anti-CHI3L1 clone R4-54 (antibody, human IgG1, V domains shown, also called #hu R4-54; mAb clone R4-54) VH: QVQLVESGGGVVQPGRSLRLSCAASGFTFSSYGMHWVRQAPGKGLEWVAVISYDGSDKDYADSVKGRFTISRDNSKNTLFLQMNSLRAEDTAVYYCARDDYDSTYYFDNWGQGTTVTVSS VL: SYELTQPPSVSVSPGQTASITCSGDILADQYASWYQQKPGQSPVLVIYHDTKRPSGVPERFSGSTSGNTATLTISGTQAMDEAAYYCQAWDINTAWVFGGGTQLTVLG | no binding | – | – | 4.22 nM | 0.0065 s⁻¹ | 1.54e+06 M⁻¹ s⁻¹ | binding result (CHI3L2 [5]): no binding; EC50 (read off the curve) (recombinant human CHI3L1 [6]): ~0.8 µg/mL; binding result [7]: no binding
4 | anti-CHI3L1 clone R4-63 (antibody, human IgG1, V domains shown, also called #hu R4-63) VH: EVQLVQSGAEVKKPGATVKISCKVSGYTFTDYYMHWVQQAPGKGLEWMGLVDPEDGETIYAEKFQGRVTITADTSTDTAYMELSSLRSEDTAVYYCATIGRPPDYWGQGTTVTVSS VL: QSVLTQPPSVSAAPGQKVTISCSGSSSNIGNNYVSWYQQLPGTAPKLLIYDNNKRPSGIPDRFSGSKSGTSATLGITGLQTGDEADYYCGTWDSSLSVWVFGGGTKLTVLG | no binding | binds | – | – | – | – | –
5 | anti-CHI3L1 clone R4-39 (antibody, human IgG1, V domains shown, also called #hu R4-39) VH: EVQLVQSGAEVRKPGESLKISCKASGYRFTNYWIGWVRQMPGKGLEWMGIIYPDDSNTKYSPSFQGQVTISVDKPITTAYLQWSSLKASDTAMYYCVRLDTYYYDSSGFPFDAFDIWGQGTMVTVSS VL: DIQMTQSPSSLSAFVGDRVTITCQASQDISTFLSWYQQKPGKAPKLLIYDATNLETGVPSRFSGRGSGTDFTFTISSLQPEDVATYFCQQYDFLPLSFGGGTKVEIRR | – | – | no binding | – | – | – | binding result (recombinant human CHI3L1 [4]): binds
6 | anti-CHI3L1 clone R4-93 (antibody, human IgG1, V domains shown, also called #hu R4-93) VH: not shown VL: NFMLTQPHSVSESPGKTVIISCTRSSGSIAHNYVQWYQLRPGSAPTTVISDDDQRPSGVPDRFSGSIDSSSNSASLTISGLRTEDEADYYCQSFDDSNWVFGGGTRLTVLG | no binding | binds | – | – | – | – | –
7 | anti-CHI3L1 clone R4-4 (antibody, V domains shown, also called #hu R4-4; mAb clone R4-4) VH: EVQLLESGGGLLQPGGSLRLSCAASGLTFRNYAMTWVRQAPGKGLEWVSTISGNGDETFYADSVKGHFTISRDNSKDTVYLQMNSLRAEDTAVYYCAKGGHYSFFDSWGQGSPVTVSS VL: NFMLTQPHSVSESPGKTVTISCTRSSGSIASNYVQWYQQRPGSSPTTVIYEDNQRPSGVPDRFSGSIDSSSNSASLTISGLKTEDEADYYCQSYDSSNYVFGTGTKVTVLG | – | – | binds | 1.13 nM | 0.000353 s⁻¹ | 313000 M⁻¹ s⁻¹ | binding result (CHI3L2 [9]): no binding; EC50 (read off the curve) (recombinant human CHI3L1 [10]): ~0.5 µg/mL; binding result [11]: no binding; EC50 (read off the curve) (recombinant human CHI3L1 [12]): ~0.6 µg/mL
8 | anti-CHI3L1 clone R4-62 (antibody, human IgG1, V domains shown, also called #hu R4-62) VH: EVQLVESGGGLVQPGGSLRLSCAASGLTFPNFAMTWVRQTPGKGLQWVSTISGRGDEPFYADSVKGRFTISRDNSKNMVYLHMNSLRAEDTAIYYCAKGGHFSSWDYWGQGTLVTVSS VL: NFMLTQPHSVSESPGKTVTISCTRSSGSIASNYVQWYQQRPDSAPTTVIYEDIERPSGVPDRFSGAIDSSANSASLTISGLQTEDEADYYCQSYDSSSYVFGTGTKVTVLG | – | binds | – | – | – | – | –
9 | anti-CHI3L1 clone 293R3-4 (antibody, human IgG1, V domains shown, also called #hu 293R3-4; CHI3L1 293R3-4) VH: EVQLVQSGAEVKKPGATVKISCKVSGYSFTDYYIHWVQQAPGKGLEWMGFVDPENGETIYAEKFQGRVTITADTSTDTAYMELSSLRSDDTAVYYCATDRDYDDSSGNAFDIWGQGTMVTVSS VL: SYELTQPPSVSVSTGQTATITCSGDILGDEYAFWYQQKAGQSPVLVIYLDTRRPSGIPERFSGSNSGDTATLTISETQPVDEAVYFCQGWDSSTALYVFGTGTKVTVLG | – | – | – | 3.94 nM | 0.00722 s⁻¹ | 1.83e+06 M⁻¹ s⁻¹ | binding result (CHI3L2 [13]): no binding; EC50 (read off the curve) (recombinant human CHI3L1 [14]): ~0.8 µg/mL; binding result [15]: no binding; binding result (mouse rCHI3L1 [16]): no binding (tested: 2.5 µg/ml coated protein)
10 | anti-CHI3L1 clone 293R3-2 (antibody, human IgG1, V domains shown, also called #hu 293R3-2; CHI3L1 293R3-2) VH: QVQLQESGPGLVEPSGTLSLTCAVSGGSISSSNWWSWVRQHPGKGLEWIGEIYHSGSTNYNPSLRSRVTISVDKSKNQFSLELSSVTAADTAVYYCAGDQRMEDDAFDIWGQGTMVTVSS VL: QSALTQPASVSGSPGQSITISCTGTSSDVGGYNYVSWYQQHPGKAPKLMIYDVSNRPSGVSNRFSGSKSGNTASLTISGLQAEDEADYYCSSYTSSSTLYVFGTGTKVTVLG | – | – | – | 2.79 nM | 0.00302 s⁻¹ | 1.08e+06 M⁻¹ s⁻¹ | binding result (CHI3L2 [17]): no binding; EC50 (read off the curve) (recombinant human CHI3L1 [18]): ~0.8 µg/mL; binding result [19]: no binding; binding result (mouse rCHI3L1 [20]): no binding
